Measurements: patent US8895062B2, “Surface-layer protein coated microspheres and uses thereof” (University of Maryland, Baltimore, priority 2006, dated 2014)
Where “and” joins values, the source holds several entries; their conditions need not be identical. Identical values can stand only once.

Legend:
[1] = system: Caco-2 intestinal epithelial cells; test: IL-8 secretion by Caco-2 cells (Luminex-100); format: cell-based, human; conditions: 18 hours
Description: TNFα (100 ng/ml; dark grey bar) served as a positive control. Following incubation for 18 hours, culture supernatants were analyzed for IL-8 using the Luminex-100 system in duplicate. Data represent mean and standard deviation of three individual experiments.
No peptides (c) and TNFα alone (dark grey bar) served as controls. Following incubation for 18 hours, culture supernatants were analyzed for IL-8 using the Luminex-100 system in duplicate. Data represent mean and standard deviation of three individual experiments.
Subconfluent monolayers of Caco-2 cells were maintained in RPMI 1640 medium (Gibco), supplemented with 10% FBS (Valley Biomedical, Winchester, Va.), 2 mM L-glutamine (Quality Biological, Gaithersburg, Md.), 20 mM HEPES, 1× nonessential amino acids, 1 mM sodium pyruvate and 5% Penicillin/Streptomycin (Sigma) in a humidified incubator at 37° C. with 5% CO2. Caco-2 cells were used between passages 35-42. Caco-2 cells were plated at a density of 4×10^4 cells/cm^2 in a 96-well plate 48 hours before use. The cells were gently washed twice with serum-free medium and incubated for a further 18 hours in serum-free medium containing the peptides at a final concentration of 50 or 100 ug/ml. Human recombinant tumor necrosis factor alpha (Sigma; 100 ng/ml) was included during incubation with the peptides (100 ug/ml) as indicated. The culture supernatant was collected for measurement of IL-8 using the Luminex-100 system (Bio-rad Laboratories).

[2] = biological target: T1, Collagen (human placenta Type IV) (Homo sapiens, UniProt P02462+P08572); test: Surface plasmon resonance (BIAcore 3000), immobilized SlpA binding to collagen
T1 construct: purchased Sigma; host or cells: human placenta
T1 sequence (P02462 173-1669): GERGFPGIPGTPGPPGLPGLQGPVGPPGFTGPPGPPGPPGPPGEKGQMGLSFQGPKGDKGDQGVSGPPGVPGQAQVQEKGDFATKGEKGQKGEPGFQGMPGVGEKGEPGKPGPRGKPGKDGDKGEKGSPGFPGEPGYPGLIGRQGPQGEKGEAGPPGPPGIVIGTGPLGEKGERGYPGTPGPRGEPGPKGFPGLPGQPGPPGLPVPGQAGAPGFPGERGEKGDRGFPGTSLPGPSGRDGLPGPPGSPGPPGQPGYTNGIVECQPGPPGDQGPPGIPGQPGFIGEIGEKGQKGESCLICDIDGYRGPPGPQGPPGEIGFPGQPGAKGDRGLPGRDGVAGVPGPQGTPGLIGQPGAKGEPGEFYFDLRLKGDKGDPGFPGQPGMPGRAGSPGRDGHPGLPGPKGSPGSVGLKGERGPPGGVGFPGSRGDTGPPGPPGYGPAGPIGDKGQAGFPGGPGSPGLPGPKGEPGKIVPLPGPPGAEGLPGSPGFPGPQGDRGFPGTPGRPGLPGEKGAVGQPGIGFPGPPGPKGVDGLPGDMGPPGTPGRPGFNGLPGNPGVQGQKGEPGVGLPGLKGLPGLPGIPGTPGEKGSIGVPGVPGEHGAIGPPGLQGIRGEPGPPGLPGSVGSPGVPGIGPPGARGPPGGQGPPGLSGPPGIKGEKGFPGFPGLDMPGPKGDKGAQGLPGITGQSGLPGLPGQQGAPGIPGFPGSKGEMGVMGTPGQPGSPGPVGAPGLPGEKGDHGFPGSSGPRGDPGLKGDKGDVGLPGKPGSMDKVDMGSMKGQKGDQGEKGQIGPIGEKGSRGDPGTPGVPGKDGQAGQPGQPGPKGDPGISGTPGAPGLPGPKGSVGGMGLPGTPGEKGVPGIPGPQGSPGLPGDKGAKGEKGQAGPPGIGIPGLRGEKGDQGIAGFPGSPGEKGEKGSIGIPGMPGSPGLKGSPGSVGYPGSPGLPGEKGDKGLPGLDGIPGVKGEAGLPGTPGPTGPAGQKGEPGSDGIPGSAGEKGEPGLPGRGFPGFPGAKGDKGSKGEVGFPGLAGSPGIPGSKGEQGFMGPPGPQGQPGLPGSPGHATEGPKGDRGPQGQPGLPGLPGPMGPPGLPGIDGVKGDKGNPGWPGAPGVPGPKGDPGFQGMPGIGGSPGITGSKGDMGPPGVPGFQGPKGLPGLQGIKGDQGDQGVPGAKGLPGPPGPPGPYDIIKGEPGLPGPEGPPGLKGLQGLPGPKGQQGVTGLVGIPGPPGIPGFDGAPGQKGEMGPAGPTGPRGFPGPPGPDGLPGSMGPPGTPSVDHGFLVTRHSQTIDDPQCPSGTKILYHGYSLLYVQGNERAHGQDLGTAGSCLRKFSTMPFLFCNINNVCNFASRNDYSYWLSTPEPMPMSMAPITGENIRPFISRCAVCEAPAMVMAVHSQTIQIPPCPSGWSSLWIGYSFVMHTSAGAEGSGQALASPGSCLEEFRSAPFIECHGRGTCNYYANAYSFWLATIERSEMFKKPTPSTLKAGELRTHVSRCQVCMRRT
T1 sequence (P08572 184-1712): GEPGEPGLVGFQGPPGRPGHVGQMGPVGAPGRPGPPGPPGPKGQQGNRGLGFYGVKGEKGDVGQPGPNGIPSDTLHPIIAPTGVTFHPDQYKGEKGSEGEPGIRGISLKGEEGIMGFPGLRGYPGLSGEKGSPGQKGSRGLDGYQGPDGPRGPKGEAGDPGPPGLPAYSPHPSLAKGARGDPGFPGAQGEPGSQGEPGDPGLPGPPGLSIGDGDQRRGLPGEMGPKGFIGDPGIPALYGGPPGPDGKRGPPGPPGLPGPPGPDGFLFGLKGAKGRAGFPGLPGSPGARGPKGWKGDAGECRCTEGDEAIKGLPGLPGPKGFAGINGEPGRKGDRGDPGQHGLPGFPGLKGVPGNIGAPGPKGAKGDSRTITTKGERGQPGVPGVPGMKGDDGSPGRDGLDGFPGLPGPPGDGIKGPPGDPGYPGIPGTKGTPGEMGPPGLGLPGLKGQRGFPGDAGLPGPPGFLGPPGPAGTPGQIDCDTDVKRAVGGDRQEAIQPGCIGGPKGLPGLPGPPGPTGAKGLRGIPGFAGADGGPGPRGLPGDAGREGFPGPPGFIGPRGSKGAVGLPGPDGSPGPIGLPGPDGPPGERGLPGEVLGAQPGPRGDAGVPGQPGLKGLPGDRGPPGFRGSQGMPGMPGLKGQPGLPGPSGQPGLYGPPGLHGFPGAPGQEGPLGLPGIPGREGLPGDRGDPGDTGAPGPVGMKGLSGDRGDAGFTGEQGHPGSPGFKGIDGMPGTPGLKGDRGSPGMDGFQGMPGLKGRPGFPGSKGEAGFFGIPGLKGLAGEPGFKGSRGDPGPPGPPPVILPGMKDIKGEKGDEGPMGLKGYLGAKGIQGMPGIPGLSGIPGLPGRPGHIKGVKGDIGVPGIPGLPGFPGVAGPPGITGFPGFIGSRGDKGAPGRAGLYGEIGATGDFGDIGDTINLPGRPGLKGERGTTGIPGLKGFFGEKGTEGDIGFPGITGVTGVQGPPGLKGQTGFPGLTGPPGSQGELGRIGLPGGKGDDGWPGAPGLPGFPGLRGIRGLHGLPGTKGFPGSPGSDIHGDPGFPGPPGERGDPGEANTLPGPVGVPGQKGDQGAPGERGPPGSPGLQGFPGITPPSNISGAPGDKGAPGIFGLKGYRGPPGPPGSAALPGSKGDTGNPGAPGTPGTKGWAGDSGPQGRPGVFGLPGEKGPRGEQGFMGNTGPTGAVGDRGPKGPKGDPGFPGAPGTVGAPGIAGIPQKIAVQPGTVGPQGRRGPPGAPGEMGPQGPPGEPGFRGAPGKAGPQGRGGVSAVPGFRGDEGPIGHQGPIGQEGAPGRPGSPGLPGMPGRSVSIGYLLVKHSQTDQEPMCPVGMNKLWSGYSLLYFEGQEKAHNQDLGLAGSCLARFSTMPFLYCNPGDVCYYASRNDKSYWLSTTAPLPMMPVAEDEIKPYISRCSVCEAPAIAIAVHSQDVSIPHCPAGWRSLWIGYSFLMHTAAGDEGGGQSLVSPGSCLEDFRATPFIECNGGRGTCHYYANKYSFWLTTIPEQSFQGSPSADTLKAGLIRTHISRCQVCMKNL
Description: (§1) The interaction between SlpA and extracellular matrix components was evaluated by surface plasmon resonance on a BIAcore 3000 instrument. Purified SlpA protein in 5M LiCl was dialyzed against double-distilled water overnight. Monomeric and/or oligomeric protein was separated from self-assembled material by centrifugation at 20,000×g for 20 min. SlpA protein (50 ug/ml in 10 mM Sodium Phosphate pH 7.4) was covalently coupled to CM5 carboxylated dextran chips using N-hydroxysuccinimide (NHS) chemistry. Uncoupled NHS-ester groups were blocked with 1M Ethanolamine, resulting in the coupling of about 1700 resonance units (RU's) to the chip. Kinetic analysis was carried out at 25° C. in 10 mM HEPES, 150 mM NaCl, 3 mM EDTA, 0.005% surfactant P20, pH 7.4. Fibronectin, laminin, fibrinogen and collagen were treated according to manufacturer's instructions and injected at indicated concentrations at a flow rate of 20 ul/min over each flow cell. Binding was determined experimentally by comparing the number of RU's observed as a function of time to an activated and blocked flow cell containing no linked protein. Non-specific binding to the control flow cell appeared insignificant. Data were evaluated using the BIAevaluation 4.1 software. The association and dissociation data were modeled with the BIAevaluation 4.1 software (Pharmacia Biosensor AB). Following subtraction of data from the control flow cell, the binding data produced for the various protein concentrations were fitted simultaneously, assuming the 1:1 Langmuir model. The equilibrium constant for the fibronectin+benzamidine experiment was calculated using steady-state kinetics.
(§2) To examine the binding properties of SlpA to the extracellular matrix proteins fibronectin, laminin, fibrinogen and collagen in detail, surface plasmon resonance was used. […] The association and dissociation rate constants were estimated from the binding data at different concentrations using the BIAevaluation software and from these values the binding constant was calculated (Table 2). […] In addition, the interaction between SlpA and the ECN components fibrinogen and collagen was studied.

[3] = biological target: T2, Fibrinogen (human plasma) (Homo sapiens, UniProt P02671+P02675+P02679); test: Surface plasmon resonance (BIAcore 3000), immobilized SlpA binding to fibrinogen; conditions: from binding constants
T2 construct: Fibrinogen (human plasma) was obtained from Calbiochem; purchased Calbiochem; host or cells: human plasma
T2 sequence (P02671 20-644 isoform P02671-2 limits assumed): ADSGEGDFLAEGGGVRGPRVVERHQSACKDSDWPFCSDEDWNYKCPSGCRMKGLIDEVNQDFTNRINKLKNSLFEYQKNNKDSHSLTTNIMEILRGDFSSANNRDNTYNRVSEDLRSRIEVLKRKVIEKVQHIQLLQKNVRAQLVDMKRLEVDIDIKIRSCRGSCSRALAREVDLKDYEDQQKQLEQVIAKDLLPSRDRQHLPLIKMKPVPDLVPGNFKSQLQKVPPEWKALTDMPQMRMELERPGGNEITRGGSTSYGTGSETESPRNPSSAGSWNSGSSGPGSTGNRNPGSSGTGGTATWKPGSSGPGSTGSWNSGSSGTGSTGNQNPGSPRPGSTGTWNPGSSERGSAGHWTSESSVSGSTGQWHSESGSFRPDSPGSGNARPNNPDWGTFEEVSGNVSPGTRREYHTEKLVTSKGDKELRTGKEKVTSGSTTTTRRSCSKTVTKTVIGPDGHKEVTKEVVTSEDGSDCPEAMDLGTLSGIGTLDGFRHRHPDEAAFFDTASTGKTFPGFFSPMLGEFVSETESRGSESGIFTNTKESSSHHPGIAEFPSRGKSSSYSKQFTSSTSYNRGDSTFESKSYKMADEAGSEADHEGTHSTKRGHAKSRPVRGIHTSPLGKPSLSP
T2 sequence (P02675 31-491): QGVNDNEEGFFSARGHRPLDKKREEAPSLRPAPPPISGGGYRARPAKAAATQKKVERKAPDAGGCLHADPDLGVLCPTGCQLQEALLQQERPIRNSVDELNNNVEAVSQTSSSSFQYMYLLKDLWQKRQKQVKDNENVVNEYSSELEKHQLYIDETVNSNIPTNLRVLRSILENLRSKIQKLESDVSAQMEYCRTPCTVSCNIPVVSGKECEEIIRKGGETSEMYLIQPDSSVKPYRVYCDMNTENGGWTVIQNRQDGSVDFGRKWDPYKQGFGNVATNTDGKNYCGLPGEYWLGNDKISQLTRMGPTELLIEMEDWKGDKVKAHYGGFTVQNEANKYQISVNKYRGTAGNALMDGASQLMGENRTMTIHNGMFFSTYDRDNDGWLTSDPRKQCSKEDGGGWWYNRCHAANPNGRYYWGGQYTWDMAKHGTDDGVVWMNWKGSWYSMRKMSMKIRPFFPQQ
T2 sequence (P02679 27-437 isoform P02679-2 limits assumed): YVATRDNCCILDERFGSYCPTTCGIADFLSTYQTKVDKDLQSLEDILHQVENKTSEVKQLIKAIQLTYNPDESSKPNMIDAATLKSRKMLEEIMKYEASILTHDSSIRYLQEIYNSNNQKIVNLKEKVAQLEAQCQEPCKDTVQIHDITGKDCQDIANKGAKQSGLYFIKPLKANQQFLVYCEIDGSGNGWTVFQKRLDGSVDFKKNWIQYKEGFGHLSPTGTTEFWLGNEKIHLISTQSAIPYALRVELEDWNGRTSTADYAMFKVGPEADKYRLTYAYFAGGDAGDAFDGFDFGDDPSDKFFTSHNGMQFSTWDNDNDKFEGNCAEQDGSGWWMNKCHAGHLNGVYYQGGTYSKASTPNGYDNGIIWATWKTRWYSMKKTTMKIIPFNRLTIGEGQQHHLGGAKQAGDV
Description: The interaction between SlpA and extracellular matrix components was evaluated by surface plasmon resonance on a BIAcore 3000 instrument. Purified SlpA protein in 5M LiCl was dialyzed against double-distilled water overnight. Monomeric and/or oligomeric protein was separated from self-assembled material by centrifugation at 20,000×g for 20 min. SlpA protein (50 ug/ml in 10 mM Sodium Phosphate pH 7.4) was covalently coupled to CM5 carboxylated dextran chips using N-hydroxysuccinimide (NHS) chemistry. Uncoupled NHS-ester groups were blocked with 1M Ethanolamine, resulting in the coupling of about 1700 resonance units (RU's) to the chip. […] Binding was determined experimentally by comparing the number of RU's observed as a function of time to an activated and blocked flow cell containing no linked protein. […] Data were evaluated using the BIAevaluation 4.1 software. […] The equilibrium constant for the fibronectin+benzamidine experiment was calculated using steady-state kinetics.
To examine the binding properties of SlpA to the extracellular matrix proteins fibronectin, laminin, fibrinogen and collagen in detail, surface plasmon resonance was used. […] The association and dissociation rate constants were estimated from the binding data at different concentrations using the BIAevaluation software and from these values the binding constant was calculated (Table 2). […]

[4] = biological target: T3, Laminin (basement membrane of Engelbreth-Holm-Swarm mouse sarcoma) (Mus musculus, UniProt P02468+P02469+P19137); test: Surface plasmon resonance (BIAcore 3000), immobilized SlpA binding to laminin
T3 construct: Laminin (basement membrane of Engelbreth-Holm-Swarm mouse sarcoma); purchased Sigma; host or cells: Engelbreth-Holm-Swarm mouse sarcoma basement membrane
Description: as §1, §2

[5] = biological target: Fibronectin (human plasma); test: Surface plasmon resonance (BIAcore 3000), immobilized SlpA binding to fibronectin
Description: as §1, §2

[6] = system: S. aureus ATCC 29213; test: Antibacterial activity, 96-well turbidimetric assay, S. aureus; format: cell-based, Staphylococcus aureus
Description: (§3) Strains were exposed to the peptides at concentrations varying twofold from 0.12 to 125 μg/ml. (B) Strains were exposed to fixed peptide concentrations (100 ug/ml for E. coli; 50 ug/ml for S. aureus) in the absence or presence of the indicated concentrations of sodium chloride. Each curve is the mean of three separate experiments. Points scored as zero survival could not be plotted.
(§4) The antibacterial activity of HD-5 and HD-5Abu against E. coli ATCC 25922 and S. aureus ATCC 29213 was carried out in a 96-well turbidimetric assay as described previously.

[7] = system: E. coli ATCC 25922; test: Antibacterial activity, 96-well turbidimetric assay, E. coli; format: cell-based, Escherichia coli
Description: as §3, §4

[8] = fibronectin to immobilized SlpA
[9] = peptide 0.12 to 125 μg/ml, 2 hour incubation

With TNFα [reference compound] the “IL-8 secretion increase relative to the control” value ([1]; TNFα 100 ng/ml alone) was ~10 fold.

B1: SlpA: Surface layer (S-layer) protein purified from Lactobacillus brevis ATCC 8287 by 5M LiCl extraction and gel filtration (protein)
chain: KSYATAGAYSTLKTDAATRNVEATGTNALYTKPGTVKGAKVVASKATMAKLASSKKSADYFRAYGVKTTNRGSVYYRVVTMDGKYRGYVYGGKSDTAFAGGIKSAETTTKADMPARTTGFYLTDTSKNTLWTAPKYTQYKASKVSLYGVAKDTKFTVDQAATKTREGSLYYHVTATNGSGISGWIYAGKGFSTTATGTQVLGGLSTDKSVTATNDNSVKIVYRTTDGTQVGSNTWVTSTDGTKAGSKVSDKAADQTALEAYINANKPSGYTVTNPNAADATYGNTVYATVSQAATSKVALKVSGTPVTTALTTADANDKVAANDTTANGSSVAGSTVYAAGTKLAQLTTDLTGEKGQVVTLTAIDTDLEDATFTGTTTYYSDLGKAYHYTYTYNKDSAASSNASTQFGSNVTGTLTATLVMGKSTATANGTTWFN
For B1, the Kd ([2]; collagen to immobilized SlpA) was 31.8 µM, the “ka × 10^3” value ([2]; collagen to immobilized SlpA) was 3.47 × 10^3 and the “kd × 10^−3 (s^−1)” value ([2]; collagen to immobilized SlpA) was 1.1 × 10^−3 s^−1. For the same molecule, the “binding affinity for collagen compared with affinity for fibronectin and laminin” value ([2]; from binding constants) was “three orders of magnitude less”, the “binding affinity for fibrinogen compared with affinity for fibronectin and laminin” value [3] was “three orders of magnitude less” and the “affinity of SlpA to bind laminin compared with fibronectin” value ([4]; from calculated Kd values) was “three-fold higher affinity”. The “ka × 10^3” value ([4]; laminin + benzamidine (1 mM)) was 3.03 × 10^3, the “kd × 10^−3 (s^−1)” value ([4]; laminin + benzamidine (1 mM)) was 2 × 10^−3 s^−1 and the “ka × 10^3” value ([4]; laminin to immobilized SlpA) was 4.89 × 10^3. The “kd × 10^−3 (s^−1)” value ([4]; laminin to immobilized SlpA) was 1.3 × 10^−3 s^−1, the Kd ([5]; fibronectin + benzamidine (SlpA preincubated with 1 mM benzamidine), steady-state kinetics) was 30.1 µM and the “ka × 10^3” value [5, 8] was 7.04 × 10^3. The “kd × 10^−3 (s^−1)” value [5, 8] was 6.32 × 10^−3 s^−1 and the Kd ([5]; fibronectin to immobilized SlpA, 25° C., 1:1 Langmuir model) was 0.0899 µM and 0.0898 µM.

B2: HD-5α: human α-defensin 5, chemically synthesized and folded, three intra-molecular disulfide bonds (peptide, UniProt Q01523 20-94, looked up)
Defensin alpha 5: ESLQERADEATTQKQSGEDNQDLAISFAGNGLSALRTSGSQARATCYCRTGRCATRESLSGVCEISGRLYRLCCR
modifications: Defensin-5
notes: human α-defensin 5, chemically synthesized and folded, three intra-molecular disulfide bonds
B2 was tested, and the “antibacterial activity against S. aureus at highest salt concentration” value ([6]; peptide 50 ug/ml, 100 mM sodium chloride) was “still significantly toxic”, the “antimicrobial activity (killing) against S. aureus” value [6, 9] was “efficiently killed” and the “IL-8 levels increase compared to control cells” value ([1]; peptide 100 ug/ml, serum-free medium) was ~10 fold. The “induction of IL-8 secretion” value ([1]; peptide 50 and 100 ug/ml) was “dose-dependent”, the “antibacterial activity against E. coli at highest salt concentration” value ([7]; peptide 100 ug/ml, 100 mM sodium chloride) was “almost completely inhibited” and the “antimicrobial activity (killing) against E. coli” value [7, 9] was “efficiently killed”.
